According to patent US20250381254A1, “Augmented Acid Alpha-Glucosidase For The Treatment Of Pompe Disease” (Amicus Therapeutics, Inc., priority 2015, published 2025):
pKd: −log10 of the molar value. Read-outs that look alike come from different tables or passages of the source.

Experiments:
Gaa knockout mice [1] = assay: Glycogen clearance, ATB200 vs Lumizyme, two IV bolus administrations; format: in vivo, mouse; conditions: ATB200 10 and 20 mg/kg; skeletal muscles
From the text: Animals are given two IV bolus administrations (every other week); tissues are harvested two weeks after the last dose and analyzed for acid α-glucosidase activity and glycogen content.

[2] = cynomolgus monkey, in vivo
Protocol: Total anti-drug antibody (ADA) and neutralizing antibody (NAb) levels are measured in plasma. Blood samples (approximately 1.6 mL) were collected in K2EDTA tubes from all animals once during acclimation, predose (prior to administration of miglustat) and on Days 1, 85 and 99. Samples were maintained on wet ice until processed. Plasma was obtained by centrifugation at 2° C. to 8° C. and aliquots (approximately 0.2 mL) were transferred to polypropylene vials, and stored frozen at −60° C. to −86° C. within one hour from blood collection. Analysis of samples for ADA was conducted on samples collected from animals in Groups 1, 2, 3, and 5 (miglustat only samples were not analyzed). Analysis for neutralizing antibodies was conducted using an enzyme assay with the fluorogenic substrate 4-methylumbelliferyl-α-D-glucopyranoside (4MU-Glc).

CIMPR [3] = target: T1, CIMPR (Homo sapiens, UniProt P11717); assay: CIMPR plate binding assay
Protocol: Briefly, CIMPR-coated plates were used to capture GAA. Varying concentrations of rhGAA were applied to the immobilized receptor and unbound rhGAA was washed off. The amount of remaining rhGAA was determined by GAA activity.

[4] = human, in vivo
From the text: The study will be conducted in 2 stages.
This stage will include: • Safety: review of AEs, including serious adverse events (SAEs) and IARs; review of concomitant medications and nondrug therapies; vital signs (HR, RR, BP, and temperature); brief PE; ECG; clinical safety laboratory assessments (serum chemistry, hematology, and urinalysis); and urine pregnancy test • PD: urinary Hex4 and serum CPK • Immunological: blood samples for anti-recombinant acid α-glucosidase antibody titers (anti-recombinant acid α-glucosidase total and neutralizing antibody titers and antibody cross-reactivity with alglucosidase alfa) and blood samples for measurement of pro-inflammatory cytokines and other biomarkers of immune system activation. If needed, IgE measurements will also be performed. • Serial 24-hour pharmacokinetics (PK): During Period 1 (Visit 3, Day 1), Period 2 (Visit 4, Day 15), and Period 3 (Visit 5, Day 29), blood sampling for plasma acid α-glucosidase activity levels and total acid α-glucosidase protein concentrations will be taken for all subjects.
• Safety: review of AEs, including SAEs and IARs; review of concomitant medications and nondrug therapies; vital signs (HR, RR, BP, and temperature); weight; PE; ECG; clinical safety laboratory assessments (serum chemistry, hematology, and urinalysis); and urine pregnancy test • PD: urinary Hex4 and serum CPK • Immunological: blood samples for anti-recombinant acid α-glucosidase antibody titers (anti-recombinant acid α-glucosidase total and neutralizing antibody titers, and antibody cross-reactivity with alglucosidase alfa) and blood samples for measurement of pro-inflammatory cytokines and other biomarkers of immune system activation. If needed, IgE measurements will also be performed. • Serial 24-hour PK: During Period 4 (Visit 6, Day 43 and Visit 8, Day 71) and Period 5 (Visit 9, Day 85 and Visit 11, Day 113), blood sampling for plasma acid α-glucosidase activity levels, total acid α-glucosidase protein concentrations, and miglustat concentrations will be taken for all subjects. […]

Gaa knockout mice [5] = assay: Muscle physiology and morphology in Gaa-knockout mice; format: in vivo, mouse; conditions: 20 mg/kg rhGAA IV every other week, miglustat 10 mg/kg oral where co-administered
Gaa knockout mice [6] = assay: Exposure-response: glycogen levels in Gaa knockout mice
Protocol: Gaa knockout mice are administered acid α-glucosidase (ATB200) intravenously at doses of 5, 10 and 20 mg/kg, rising oral doses of miglustat (1, 3 and 10 mg/kg) concomitantly with intravenous doses of 5 or 10 mg/kg of ATB200 or rising oral doses of miglustat (1, 3, 5, 10, 20, and 30 mg/kg) concomitantly with intravenous doses of 20 mg/kg of ATB200.

[7] = test system: Pompe fibroblasts and skeletal muscle myoblasts; assay: Internalization by Pompe fibroblasts and skeletal muscle myoblasts; format: cell-based
[8] = test system: normal and Pompe fibroblast cell lines; assay: Cellular uptake of rhGAA in fibroblasts; format: cell-based; conditions: for concentration that saturates cellular receptors: 16-hr incubation
Protocol: The relative cellular uptake of ATB200 and Lumizyme® rhGAA were compared using normal and Pompe fibroblast cell lines. Comparisons involved 5-100 nM of ATB200 rhGAA according to the invention with 10-500 nM conventional rhGAA Lumizyme®. After 16-hr incubation, external rhGAA was inactivated with TRIS base and cells were washed 3-times with PBS prior to harvest. Internalized GAA measured by 4MU-α-Glucoside hydrolysis and was graphed relative to total cellular protein and the results appear in FIGS. 10A-B.

[9] = in vivo
Protocol: Pharmacokinetic data for acid α-glucosidase (ATB200), including sampling times, dosing history and plasma concentrations of acid α-glucosidase, is obtained from mice, rats and monkeys administered ATB200 by intravenous injection. […] Modeling and simulations are performed using Phoenix® NLME™ v1.3. Compartmental PK models are constructed to assess the PK of ATB200 in plasma. The models include: • Description of the relationships between plasma concentration and time; • A variance component characterizing between- and within-animal variability in model parameters; and • A component describing uncertainty in the state of knowledge about critical model components.
PK is assumed to be species independent and is scaled according to a generalized Dedrick approach that scales the disposition according to the power of an animal's body weight:
where CL=systemic clearance, V=volume of distribution, BW=body weight, p=peripheral, b and d=allometric exponents, and a and c=typical values for a BW=1. […] Nominal BW (0.025, 0.25 and 2.5 kg) are used in the analyses.
The model includes a theoretical allometric component accounting for difference in body weight across animal species on clearance (CL) and volume of distribution (Vc).

[10] = in vivo, iv, 100 mg/kg
[11] = Clinical study: ALT, AST and CPK biomarkers; format: in vivo, human
Protocol: Alanine aminotransferase (ALT), aspartate aminotransferase (AST) and creatine phosphokinase (CPK) levels were monitored in human patients that switched from Lumizyme® to ATB200. The patients received ascending doses of ATB200 (5, 10 and 20 mg/kg) followed by co-administration of ATB200 (20 mg/kg) and miglustat (130 and 260 mg). High levels of CPK enzyme may indicate injury or stress to muscle tissue, heart, or brain. Elevated ALT and AST are markers of liver and muscle damage from Pompe disease, respectively.

[12] = in vivo; remark: listed apart in the source
[13] = human, in vivo; remark: listed apart in the source
Protocol: This is an open-label, fixed-sequence, ascending-dose, first-in-human study to evaluate the safety, tolerability, and pharmacokinetics (PK) of intravenous (IV) recombinant acid α-glucosidase (ATB200, lyophilized powder reconstituted with sterile water for injection and diluted with 0.9% sodium chloride for injection) alone and when co-administered with oral miglustat (hard gelatin capsules, 65 mg). The study will be conducted in 2 stages. In Stage 1, safety, tolerability, and PK will be evaluated following sequential single ascending doses of ATB200, administered every 2 weeks as an approximately 4 hour intravenous infusion, for 3 dosing periods at 5, 10, and 20 mg/kg. In Stage 2, safety, tolerability, and PK will be evaluated following single- and multiple-ascending dose combinations: 20 mg/kg ATB200 co-administered every 2 weeks with 130 mg miglustat (two 65 mg capsules), taken orally 1 hour prior to an approximately 4 hour intravenous infusion of ATB200, for 3 doses followed by 20 mg/kg ATB200 co-administered with 260 mg miglustat (four 65 mg capsules), taken orally 1 hour prior to an approximately 4 hour intravenous infusion of ATB200, for 3 doses.

cynomolgus monkeys = assay: 13-week toxicity study in cynomolgus monkeys; conditions: once every other week for 13 weeks
Protocol: Animals were acclimated to the study room for 18 (females) to 19 (males) days. On the final day of acclimation, animals weighed between 2.243 kg and 5.413 kg and were 2 to 3 years of age.
ATB200 is formulated in 25 mM sodium phosphate buffer, pH 6 containing 2.92 mg/mL sodium chloride, 20 mg/mL mannitol, and 0.5 mg/mL polysorbate 80 (formulation buffer). Test article (ATB200 or miglustat) and control article/vehicle (formulation buffer) were administered once every other week for 13 weeks, starting on Day 1 and ending on Day 85. ATB200 and the control article/vehicle were administered by 2 hour (±10 minute) intravenous (IV) infusion at 0 mg/kg (Group 1, control article), 50 mg/kg (Group 2), or 100 mg/kg (Groups 3 and 5). Miglustat was administered nasogastrically in sterile water for injection, USP, at 25 mg/kg (Group 2) or 175 mg/kg (Groups 3 and 4), 30 minutes (±2 minutes) prior to the start of the infusion for ATB200, when given in combination. The dosing volume across all groups was 10 mL/kg.
Parameters assessed during the in-life phase of the study included body weights, food consumption, clinical observations, detailed clinical observations, physical examinations, electrocardiography, ophthalmic assessments, clinical pathology (hematology, coagulation, serum chemistry), anti-drug antibody (ADA) assessment, neutralizing ADA assessment, urinalysis, and plasma toxicokinetics (TK) for miglustat and ATB200 activity and total protein. Terminal necropsy of animals was performed on Day 99 (14 days after the last dose administration). At necropsy, gross observations and organ weights were recorded, and tissues were collected for microscopic examination.

[14] = cynomolgus monkey, in vivo; remark: listed apart in the source
Protocol: ATB200 toxicokinetics were measured in blood samples collected in K2EDTA tubes from animals on Days 1 and 85 at the following time points: • For Groups 1, 2, 3, and 5: Predose (prior to administration of miglustat); 1 hour from initiation of infusion; 2 hours from initiation of infusion; 2.5 hours from initiation of infusion; 3 hours from initiation of infusion; 4 hours from initiation of infusion; 6 hours from initiation of infusion; 12 hours from initiation of infusion; 26 hours from initiation of infusion; 168 hours from initiation of infusion; and 336 hours from initiation of infusion (collected prior to dosing on Day 15); and • For Group 4: Predose (prior to administration of miglustat); 1.5 hour post administration of miglustat; 2.5 hours post administration of miglustat; 3.5 hours post administration of miglustat; 4.5 hours post administration of miglustat; 6.5 hours post administration of miglustat; 12.5 hours post administration of miglustat; 26.5 hours post administration of miglustat; 168.5 hours post administration of miglustat; and 336.5 hours post administration of miglustat (collected prior to dosing on Day 15). […]
Total ATB200 protein was measured by liquid chromatography coupled to tandem mass spectrometry (LC-MS/MS). […]

[15] = cited from earlier work
CIMPR [16] = target: T1, CIMPR; assay: CIMPR affinity chromatography of rhGAA; format: binding; conditions: fraction of total enzyme by GAA activity
Protocol: To evaluate the ability of the rhGAA in Myozyme® and Lumizyme®, the only currently approved treatments for Pompe disease, these rhGAA preparations were injected onto a CIMPR column (which binds rhGAA having M6P groups) and subsequently eluted with a free […] gradient. Fractions were collected in 96-well plate and GAA activity assayed by 4MU—α-glucose substrate. The relative amounts of bound and unbound rhGAA were determined based on GAA activity and reported as the fraction of total enzyme.

Gaa KO mice = assay: Muscle function in Gaa KO mice, 12 biweekly administrations; format: in vivo, mouse; conditions: 20 mg/kg ERT, 10 mg/kg miglustat, FIGS. 33A-33B
From the text: In FIG. 33A, * indicates statistically significant compared to Lumizyme® alone (p<0.05, 2-sided t-test). In FIGS. 34A-34G, * indicates statistically significant compared to Lumizyme® alone (p<0.05, multiple comparison using Dunnett's method under one-way ANOVA analysis).

[17] = one patient, switched from Lumizyme®, ATB200 5, 10, 20 mg/kg then 20 mg/kg + miglustat 130 and 260 mg

T1 sequence (P11717 41-2491, species assumed): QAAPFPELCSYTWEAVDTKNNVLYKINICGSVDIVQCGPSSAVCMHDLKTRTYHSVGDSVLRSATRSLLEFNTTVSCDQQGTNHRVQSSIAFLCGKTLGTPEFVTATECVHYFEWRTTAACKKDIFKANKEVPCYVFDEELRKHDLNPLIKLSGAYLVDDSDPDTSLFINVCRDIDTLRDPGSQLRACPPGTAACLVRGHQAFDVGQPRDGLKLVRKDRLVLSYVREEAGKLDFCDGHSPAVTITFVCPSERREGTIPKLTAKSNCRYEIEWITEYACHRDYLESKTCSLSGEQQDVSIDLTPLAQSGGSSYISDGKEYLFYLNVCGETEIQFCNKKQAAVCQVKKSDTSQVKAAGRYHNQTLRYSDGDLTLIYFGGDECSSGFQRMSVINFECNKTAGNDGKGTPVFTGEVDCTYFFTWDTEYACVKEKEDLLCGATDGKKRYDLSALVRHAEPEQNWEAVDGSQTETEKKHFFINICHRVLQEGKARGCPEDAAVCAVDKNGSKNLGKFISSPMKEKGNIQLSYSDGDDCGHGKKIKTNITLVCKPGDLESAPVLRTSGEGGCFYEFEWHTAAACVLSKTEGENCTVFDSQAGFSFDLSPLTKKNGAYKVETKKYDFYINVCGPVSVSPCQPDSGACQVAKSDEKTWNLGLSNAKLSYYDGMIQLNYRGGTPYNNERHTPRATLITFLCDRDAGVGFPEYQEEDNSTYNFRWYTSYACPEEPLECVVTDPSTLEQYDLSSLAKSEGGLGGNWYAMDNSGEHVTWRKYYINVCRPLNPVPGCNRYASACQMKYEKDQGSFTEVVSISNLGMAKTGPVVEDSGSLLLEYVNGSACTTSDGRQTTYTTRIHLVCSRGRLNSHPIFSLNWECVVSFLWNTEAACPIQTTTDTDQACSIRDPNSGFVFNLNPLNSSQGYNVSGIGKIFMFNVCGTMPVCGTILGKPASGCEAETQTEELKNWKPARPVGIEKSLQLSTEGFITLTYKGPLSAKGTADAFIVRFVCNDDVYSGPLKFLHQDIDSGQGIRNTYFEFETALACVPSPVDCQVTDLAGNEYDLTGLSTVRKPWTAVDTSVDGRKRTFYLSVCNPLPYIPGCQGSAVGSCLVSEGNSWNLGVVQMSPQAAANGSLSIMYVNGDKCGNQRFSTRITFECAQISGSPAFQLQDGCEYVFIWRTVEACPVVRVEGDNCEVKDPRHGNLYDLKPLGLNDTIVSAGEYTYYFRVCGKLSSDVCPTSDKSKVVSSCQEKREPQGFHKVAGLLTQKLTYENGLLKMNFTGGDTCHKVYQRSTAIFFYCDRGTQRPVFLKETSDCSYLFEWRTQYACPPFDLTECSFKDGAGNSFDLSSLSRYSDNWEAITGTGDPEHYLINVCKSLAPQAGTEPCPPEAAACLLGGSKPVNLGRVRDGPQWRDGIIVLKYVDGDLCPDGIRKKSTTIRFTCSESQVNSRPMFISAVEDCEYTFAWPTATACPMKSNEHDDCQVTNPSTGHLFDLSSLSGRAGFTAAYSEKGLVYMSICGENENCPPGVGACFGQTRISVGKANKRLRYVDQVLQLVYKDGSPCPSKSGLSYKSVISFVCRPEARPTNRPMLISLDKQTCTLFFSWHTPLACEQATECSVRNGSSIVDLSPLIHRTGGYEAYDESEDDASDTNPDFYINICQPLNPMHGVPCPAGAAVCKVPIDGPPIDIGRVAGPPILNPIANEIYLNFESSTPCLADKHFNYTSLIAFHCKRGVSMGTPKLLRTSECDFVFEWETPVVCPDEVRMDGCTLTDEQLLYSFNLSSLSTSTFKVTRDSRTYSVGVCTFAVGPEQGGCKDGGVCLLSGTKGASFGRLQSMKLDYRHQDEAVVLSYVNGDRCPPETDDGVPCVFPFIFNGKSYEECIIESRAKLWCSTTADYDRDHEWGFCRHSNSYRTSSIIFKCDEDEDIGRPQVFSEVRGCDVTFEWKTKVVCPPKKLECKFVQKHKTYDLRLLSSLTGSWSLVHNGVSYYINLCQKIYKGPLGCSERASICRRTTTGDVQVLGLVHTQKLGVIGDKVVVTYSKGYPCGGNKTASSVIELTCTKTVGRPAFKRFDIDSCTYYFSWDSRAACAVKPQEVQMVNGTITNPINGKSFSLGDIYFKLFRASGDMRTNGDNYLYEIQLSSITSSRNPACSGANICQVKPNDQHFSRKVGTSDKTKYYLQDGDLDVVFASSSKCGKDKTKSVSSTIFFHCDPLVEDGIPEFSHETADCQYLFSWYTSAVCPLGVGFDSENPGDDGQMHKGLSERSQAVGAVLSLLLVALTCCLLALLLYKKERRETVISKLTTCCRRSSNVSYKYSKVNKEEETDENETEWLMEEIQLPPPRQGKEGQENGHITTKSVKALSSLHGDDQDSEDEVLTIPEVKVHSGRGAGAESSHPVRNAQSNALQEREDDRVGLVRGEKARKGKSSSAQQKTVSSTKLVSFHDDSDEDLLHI

ATB200
glycogen reduction vs Lumizyme® 20 mg/kg (Gaa knockout mice [1]): significantly better reduction of glycogen levels in skeletal muscles than Lumizyme®
anti-drug antibody (ADA) incidence [2]: 100%
CIMPR binding compared with Lumizyme® (CIMPR [3]; FIG. 9A): bound to CIMPR significantly better than Lumizyme®
pKd (CIMPR [3]; M6P receptor plate binding assays): 8.40 to 8.70
Volume of distribution [4]: 3.5 to 5.7 L
dose proportionality of exposures [4]: slightly greater than dose proportional exposures
tmax (median) ([4]; 20 mg/kg): 4.0 h
lysosome proliferation (LAMP1) (Gaa knockout mice [5]; FIG. 20): reduction in lysosome proliferation in heart, diaphragm and skeletal muscle (soleus) tissue compared to conventional treatment with alglucosidase alfa
punctate glycogen levels (PAS) (Gaa knockout mice [5]; FIG. 21): reduction in punctate glycogen levels in heart and skeletal muscle (soleus) tissue compared to conventional treatment with alglucosidase alfa
tissue glycogen depletion (Gaa knockout mice [6]; 5, 10 and 20 mg/kg IV): deplete tissue glycogen in acid α-glucosidase (Gaa) knockout mice in a dose-dependent fashion
Glycogen, median (Gaa knockout mice [6]; ATB200 5 mg/kg monotherapy, Study #1): 307 μg/mg protein
Glycogen, median (Gaa knockout mice [6]; ATB200 5 mg/kg monotherapy, overall median): 307 μg/mg protein
Glycogen, median (Gaa knockout mice [6]; ATB200 10 mg/kg monotherapy, Study #1): 259 μg/mg protein
Glycogen, median (Gaa knockout mice [6]; ATB200 10 mg/kg monotherapy, overall median): 259 μg/mg protein
Glycogen, median (Gaa knockout mice [6]; ATB200 20 mg/kg monotherapy, Study #1): 157 μg/mg protein
Glycogen, median (Gaa knockout mice [6]; ATB200 20 mg/kg monotherapy, Study #3): 195 μg/mg protein
Glycogen, median (Gaa knockout mice [6]; ATB200 20 mg/kg monotherapy, overall median): 181 μg/mg protein
Kupdate (internalization) [7]: 7 to 14 nM
concentration that saturates cellular receptors [8]: about 20 nM
internalization into normal and Pompe fibroblast cells ([8]; vs Lumizyme®): internalized to a greater degree than conventional Lumizyme® rhGAA
Central volume of distribution (Vc) [9]: 0.0101 × (BW/0.25)^0.83 L
Peripheral clearance (CLd) [9]: 0.00029 × (BW/0.25)^0.78 L/h
Peripheral volume of distribution (V2) [9]: 0.000653 × (BW/0.25)^0.83 L
Systemic clearance (CL) [9]: 0.00957 × (BW/0.25)^0.78 L/h
AUC [10]: 5330 µg·h/mL
reduction in ALT ([11]; another patient, same regimen): 11%
reduction in AST ([11]; another patient, same regimen): 22%
reduction in CPK ([11]; another patient, same regimen): 31%
reduction in ALT [11, 17]: 34%
reduction in AST [11, 17]: 28%
reduction in CPK [11, 17]: 44%
apparent plasma half-life t1/2 [12]: ~45 m
adverse events [13]: generally mild and transient
infusion-associated reactions [13]: no infusion-associated reactions
serious adverse events [13]: no serious adverse events (SAEs)
test article-related changes (survival, clinical observations, body weight, ECG, clinical pathology, organ weights, histopathology) (cynomolgus monkeys): no changes attributable
No-Observed-Adverse-Effect-Level (NOAEL) (cynomolgus monkeys; 2 hour infusion, with or without miglustat, highest dosage tested): 100 mg/kg/infusion
mean terminal half-life (t1/2β) [14]: 1.70 to 11.1 h
time to maximal ATB200 plasma concentration (tmax) [14]: approximately 2 hours

Lumizyme®: conventional rhGAA product (alglucosidase alfa), Genzyme
AUC ([15]; 20 mg/kg dose, reported): ~2700 µg·h/mL
systemic clearance ([15]; Week 52, repeated dosing, late-stage Pompe disease, product label): 601 mL/h
half-life ([15]; product label): 2.4 h
rhGAA activity eluted prior to addition of M6P (did not bind to the CIMPR) (CIMPR [16]): 78%
rhGAA eluted with M6P / containing M6P (CIMPR binding) (CIMPR [16]): 22%
concentration that saturates cellular receptors [8]: about 250 nM
uptake efficiency constant (Kuptake) ([8]; extrapolated, FIG. 10C): 56 nM
functional muscle strength (grip strength and wire hang tests) (Gaa KO mice): observed to decline
